From US5254534A, “Adjuvant for cancer immunotherapy” (Green Cross Corporation, priority 1988, dated 1993)
Read-outs that look alike come from different tables or passages of the source.

Columns and labels:
TNF activity = experiment: Induction of TNF activity by mixed culture of monocytes and PICIBANIL (OK-432) plus CSF; cytocidal activity against L929 cells (crystal violet); format: cell-based; conditions: conclusions from Table 2
Procedure: (3) Incubation was performed at 37° C. for 72 hours in a 5% CO2 atmosphere.
(4) The supernatant was assayed for TNF activity at timed intervals. The TNF activity was determined by measuring the cytocidal activity against L929 cells in terms of the absorbance of crystal violet.

mouse marrow cells [1] = experiment: Colony stimulating activity: colony formation of mouse marrow cells on soft agar; format: cell-based; conditions: for specific activity: purified glycoprotein/CSF of the examples
Procedure: In biological activity measurement, the colony formation of mouse marrow cells in vitro was used as an activity measurement parameter. […] Thereafter, cell aggregates consisting of 50 or more cells were counted as colonies under an invert microscope.
One colony formed is taken as one unit.
Thus, the CSF sample was admixed with 1 ml of McCoy's 5A medium containing 0.3% agar, 20% fetal calf serum (FCS) and 1×10^5 mouse marrow cells. […] Thereafter, cell aggregates consisting of 50 or more cells were judged as colonies and counted. The colony stimulating activity was expressed in units. One unit was defined as the quantity of CSF required for the formation of one colony. The specific activity was expressed in terms of the number of colonies (units) formed per milligram of the CSF protein. […] The colonies formed were stained with hematoxylin-eosin for morphological classification.

[2] = Thermal stability of the CSF (60°C, then colony stimulating activity); format: physicochemical; conditions: 1 μg/ml, dilute buffer pH 7.0, 60°±0.5° C., 60 minutes
Procedure: The CSF was dissolved in a dilute buffer (pH 7.0) to a concentration of 1 μg/ml, and the solution was heated at 60°±0.5° C. for 60 minutes and then assayed for colony stimulating activity (to be mentioned later herein).

Isoelectric point = format: physicochemical; conditions: polyacrylamide gel isoelectric focusing and sucrose density gradient isoelectric focusing
Source text: The isoelectric point (pI) as determined by the polyacrylamide gel isoelectric focusing and sucrose density gradient isoelectric focusing techniques is 3.1-3.7.

marrow cells = conditions: cited from earlier work
mouse marrow cells [3] = conditions: CSF (iv), typical production method; cited from earlier work
[4] = 60±0.5° C., 60 minutes; CSF (iv); cited from earlier work
[5] = polyacrylamide gel isoelectric focusing and sucrose density gradient isoelectric focusing; CSF (iv); cited from earlier work
[6] = system: mammalian monocyte-macrophage series cells; conditions: cited from earlier work
[7] = cited from earlier work
[8] = 1% (by weight) aqueous solution; cited from earlier work
[9] = 1% (by weight) aqueous solution, 60° C. ±0.5° C., 30 minutes; cited from earlier work
human marrow cells = conditions: cited from earlier work

B1: Example 4: human urine-derived CSF isolated and purified in the same manner as in Example 3 with TSKG-3,000SW and phenyl-5pw (protein, UniProt P09603 33-554, looked up)
Macrophage colony-stimulating …: EEVSEYCSHMIGSGHLQSLQRLIDSQMETSCQITFEFVDQEQLKDPVCYLKKAFLLVQDIMEDTMRFRDNTPNAIAIVQLQELSLRLKSCFTKDYEEHDKACVRTFYETPLQLLEKVKNVFNETKNLLDKDWNIFSKNCNNSFAECSSQDVVTKPDCNCLYPKAIPSSDPASVSPHQPLAPSMAPVAGLTWEDSEGTEGSSLLPGEQPLHTVDPGSAKQRPPRSTCQSFEPPETPVVKDSTIGGSPQPRPSVGAFNPGMEDILDSAMGTNWVPEEASGEASEIPVPQGTELSPSRPGGGSMQTEPARPSNFLSASSPLPASAKGQQPADVTGTALPRVGPVRPTGQDWNHTPQKTDHPSALLRDPPEPGSPRISSLRPQGLSNPSTLSAQPQLSRSHSSGSVLPLGELEGRRSTRDRRSPAEPEGGPASEGAARPLPRFNSVPLTDTGHERQSEGSFSPQLQESVFHLLVPSVILVLLAVGGLLFYRWRRRSHQEPQRADSPLEQPEGSPLTQDDRQVELPV
TNF activity (in words) (TNF activity): does not cause TNF activity expression
specific activity (mouse marrow cells [1]): 1.5×10^8 units/mg protein

B2: Example 3: purified CSF from human urine, homodimer of 70,000-90,000 daltons (protein, UniProt P09603 33-554, looked up)
Macrophage colony-stimulating …: B1 Macrophage colony-stimulating …
proportion of colonies that were monocyte-macrophage colonies (mouse marrow cells [1]; hematoxylin-eosin staining, 7 days at 37° C.): at least 95%
specific activity (mouse marrow cells [1]): 1.4×10^8 units/mg protein
Thermal stability (colony stimulating activity decrease) [2]: Almost no activity decrease was observed
isoelectric point (pI) (Isoelectric point): 3.1-3.7

B3: 2: heat-treated glycoprotein (CSF) from fresh urine collected from healthy humans (protein, UniProt P09603 33-554, looked up)
Macrophage colony-stimulating …: B1 Macrophage colony-stimulating …
modifications: heat-treated
notes: heat-treated glycoprotein (CSF) from fresh urine collected from healthy humans
specific activity (mouse marrow cells [1]): 1×10^7 units/mg protein

B4: CSF (ii): CSF disclosed in JP-A-63-54398; glycoprotein, molecular weight about 70,000 by gel filtration (protein, UniProt P09603 33-554, looked up)
Macrophage colony-stimulating …: B1 Macrophage colony-stimulating …
differentiation and proliferation of granulocytic series stem cells (marrow cells): promotes the differentiation and proliferation of granulocytic series stem cells

B5: CSF (iv): CSF disclosed in JP-A-63-250400; glycoprotein, homodimer composed of two identical subunits (protein, UniProt P09603 33-554, looked up)
Macrophage colony-stimulating …: B1 Macrophage colony-stimulating …
specific activity (mouse marrow cells [3]): 100,000-20,000,000 units/mg protein
Thermal stability (biological activity) [4]: biological activity is not lost
isoelectric point (pI) [5]: 3.1-3.7
colony stimulating activity [6]: has colony stimulating activity

B6: CSF (i): CSF disclosed in U.S. Pat. No. 4,275,056; glycoprotein, molecular weight 75,000-90,000 by gel filtration (protein, UniProt P09603 33-554, looked up)
Macrophage colony-stimulating …: B1 Macrophage colony-stimulating …
Solubility in chloroform ([7]; chloroform): slightly soluble
Solubility in ethyl alcohol and acetone ([7]; ethyl alcohol and acetone): insoluble
Solubility in water ([7]; water): soluble
pH [8]: 5.0-6.0
Temperature stability [9]: loses its ability to promote the differentiation and proliferation of human granulocytes
differentiation and proliferation of granulocytes (human marrow cells): promotes the differentiation and proliferation of granulocytes
